{
  "source": "paper PMC4942575",
  "about": "“Plastid-nucleus communication involves calcium-modulated MAPK signalling”",
  "binders": {"B1": {"name": "LHCB promoter probe (dsDNA)", "DNA 1": "GACTAGAGACTGCCACATAAGAATAGTAAAGTTA", "DNA 2": "TAACTTTACTATTCTTATGTGGCAGTCTCTAGTC"}},
  "key": {"[1]": {"biological_target": "MBP-ABI4 WT (Arabidopsis thaliana, UniProt A0MES8 1-328)", "sequence (A0MES8 whole entry)": "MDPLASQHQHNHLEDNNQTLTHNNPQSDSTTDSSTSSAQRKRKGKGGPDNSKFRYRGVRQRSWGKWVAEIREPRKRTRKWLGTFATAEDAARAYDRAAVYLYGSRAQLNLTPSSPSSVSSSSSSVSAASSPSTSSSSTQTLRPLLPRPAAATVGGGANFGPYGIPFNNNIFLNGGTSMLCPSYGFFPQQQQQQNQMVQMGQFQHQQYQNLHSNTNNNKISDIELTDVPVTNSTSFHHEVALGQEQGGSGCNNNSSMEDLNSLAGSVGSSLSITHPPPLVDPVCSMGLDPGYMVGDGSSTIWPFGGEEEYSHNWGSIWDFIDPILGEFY", "assay": "EMSA; poly(dI/dC); competed by excess unlabelled probe; 10 ul: 2 ug protein, 200 fmol biotin probe, 1 ul poly(dI/dC), 1x LightShift binding buffer, 5% glycerol; room temperature 20 min; 6% native PAGE; pH and salt not given", "conditions": "protein: recombinant; tags: MBP (pETMALc-H); label: 3' biotin"}, "[2]": {"biological_target": "MBP-ABI4 AAA (Arabidopsis thaliana, UniProt A0MES8 1-328, T111A;S114A;S130A)", "sequence (A0MES8 whole entry T111A/S114A/S130A)": "as the sequence (A0MES8 whole entry) above, with T111A, S114A, S130A counted along it", "assay": "EMSA; poly(dI/dC); 10 ul: 2 ug protein, 200 fmol biotin probe, 1 ul poly(dI/dC), 1x LightShift binding buffer, 5% glycerol; room temperature 20 min; 6% native PAGE; pH and salt not given", "conditions": "protein: recombinant; tags: MBP (pETMALc-H); label: 3' biotin"}},
  "data": [
    {"binder": "B1", "values": [
      {"measurement": "binding result", "setting": "[1]", "result": "binds"},
      {"measurement": "binding result", "setting": "[2]", "result": "no binding"}
    ]}
  ]
}
